Results on 39 molecules are retold here after patent US20210230599, “STEM-LOOP COMPOSITIONS AND METHODS FOR INHIBITING INTERLEUKIN-8” (VITRISA THERAPEUTICS, INC., published 2021).

What all share (experiment): competition; competition TR-FRET
Conditions in all cases: tags: C-terminal 6xHis (Sino Biological)
(In general: Time-resolved FRET reads energy transfer from a long-lived donor to a nearby acceptor.)

Data set [1] deals with T1, Interleukin-8 (IL8, CXCL8), C-terminal His-tagged (Homo sapiens, UniProt P10145 SEQ:1-72). Here is the method: (§1) To better understand the sequence requirements and to confirm the stem structures of members of the Aptamer 3 family as determined from sequence covariation analysis from both the primary and secondary (degenerate) selections, a series of variants which included mutations and deletions to the predicted stems were synthesized and screened (Table 24). Activity of each of these variants were tested using a time resolved competition TR-FRET assay in which the labeled parent Aptamer 3 was competed with increasing concentrations of unlabeled variants for binding to IL8 (FIG. 14). Briefly, 2-fold dilutions of thermally equilibrated aptamers were made in TR-FRET Buffer (50 mM MOPS, pH 7.4, 125 mM NaCl, 5 mM KCl, 50 μM CHAPS, 0.1 mg/mL BSA, 1 mM CaCl₂, and 1 mM MgCl₂). 5 μL of aptamer or control solution was added to 5 μl mix of 10 nM C-terminal His-tagged-IL8, 60 nM ALEXA FLUOR® 647-labeled Aptamer, and 5 nM anti-His-Eu (Perkin Elmer) in a black wall low volume 384 well plate (Greiner). For control, 5 μl of 1000-fold excess of unlabeled parent aptamer or 5 μl TR-FRET buffer alone was added to the mix of ALEXA FLUOR® 647-labeled aptamer, His-IL8, and anti-His-Eu. The plate was covered with a plate seal and subsequently incubated in the dark for 1 hour at room temperature. The plate was read on a Biotek CYTATION™ 5 plate reader. Samples were excited at 330 nm and fluorescent values were collected at 665 nm. Data analysis was performed by subtracting the background value and plotting as percent inhibition, normalized to baseline in the absence of competitor. The values were fit by [Inhibitor] vs. response—Variable slope (four parameters) using GraphPad Prism Version 7.0 and then normalized to aptamer control to obtain an IC₅₀ relative to parent aptamer. Data is presented as log values of relative IC₅₀.

Data set [2] addresses T1, Interleukin-8 (IL8, CXCL8), C-terminal …. Here is the method:
as §1
To test the effects of variation in this region on aptamer function, aptamer clones from Round 5 of the degenerate selection which had mutations in loop L3 were synthesized (Table 26). All of the compounds were tested in the competition TR-FRET assay.
The source holds these as a separate data set.

For data set [3] the target is unchanged. On the procedure:
as §1, with “Activity” for “To better understand the sequence requirements and to confirm the stem structures of members of the Aptamer 3 family as determined from sequence covariation analysis from both the primary and secondary (degenerate) selections, a series of variants which included mutations and deletions to the predicted stems were synthesized and screened (Table 24). Activity”
To better understand the sequence requirements and confirm the stem structures of members of the Aptamer 8 family as determined from sequence covariation analysis from both the primary and secondary (degenerate) selections, a series of variants which included mutations and deletions to the predicted stems (Tables 45 and 46) were synthesized and screened. Activity of each of these variants was tested using a competition TR-FRET assay in which the labeled parent Aptamer 8 was competed with increasing concentration of unlabeled variants for binding to IL8 as described in Example 11.
The source holds these as a separate data set.

As to UCAUGACGGUAGAUUACGGGUAGAGUGACCGCAUGU (ssRNA, 2'-F G, 2'-OMe A/C/U, 5' C6NH2, 3' idT) [Aptamer 183], the binding result in data set [1] is “binds”.

Regarding UGAUGACAGUAGAUUACGGGUAGAGUGACUGCAUCU (ssRNA, 2'-F G, 2'-OMe A/C/U, 5' C6NH2, 3' idT) [Aptamer 185], in data set [1], the binding result is listed as “binds”.

On to UGAUGACGGUAGAUUCCGGGUAGUGUGACCGCAUCU (ssRNA, 2'-F G, 2'-OMe A/C/U, 5' C6NH2, 3' idT) [Aptamer 95], for which the binding result in data set [2] was “binds”.

Take UGAUGACGGUAGAUUAUGGGUAGUGUGACCGCAUCU (ssRNA, 2'-F G, 2'-OMe A/C/U, 5' C6NH2, 3' idT) [Aptamer 111]: in data set [2], the binding result is “binds”.

Turning to UGAUCACGGUAGAUUACGGGUAGAGUGACCGGAUCU (ssRNA, 2'-F G, 2'-OMe A/C/U, 5' C6NH2, 3' idT) [Aptamer 184], the binding result in data set [1] is listed as “binds”.

Turning to UGAUGACGGUAGAUUACGGGCAGUGUGACCGCAUCU (ssRNA, 2'-F G, 2'-OMe A/C/U, 5' C6NH2, 3' idT) [Aptamer 96], the binding result in data set [2] was “binds”.

As to UCAUGACGGUAGAUUACGGGUAGAGUGACCGCAUGU (ssRNA, 2'-F G, 2'-OMe A/C/U, 5' C6NH2, 3' idT) [Aptamer 102], the binding result in data set [2] is listed as “binds”.

UGAUGACGGUAGAUAACGGGUAGUGUGACCGCAUCU (ssRNA, 2'-F G, 2'-OMe A/C/U, 5' C6NH2, 3' idT) [Aptamer 109]: the binding result in data set [2] is recorded as “binds”.

UCAUGACGGUAGAUUUCGGGUAGUGUGACCGCAUGU (ssRNA, 2'-F G, 2'-OMe A/C/U, 5' C6NH2, 3' idT) [Aptamer 101]: in data set [2], the binding result is “binds”.

Turning to UGAUGACGGUAGAUUACGGGAAGUGUGACCGCAUCU (ssRNA, 2'-F G, 2'-OMe A/C/U, 5' C6NH2, 3' idT) [Aptamer 98], the binding result in data set [2] is “binds”.

Take UGAUGACGGUAGAUUACGGGAAGAGUGACCGCAUCU (ssRNA, 2'-F G, 2'-OMe A/C/U, 5' C6NH2, 3' idT) [Aptamer 103]: the binding result in data set [2] is listed as “binds”.

Take UGAUGACGGUAGAUAACGGGUAGAGUGACCGCAUCU (ssRNA, 2'-F G, 2'-OMe A/C/U, 5' C6NH2, 3' idT) [Aptamer 108]: the binding result in data set [2] is on record as “binds”.

For the molecule UGAUGACGGUAGAUUACGGGUUGUGUGACCGCAUCU (ssRNA, 2'-F G, 2'-OMe A/C/U, 5' C6NH2, 3' idT) [Aptamer 105], the binding result in data set [2] was “binds”.

Turning to UGCUGACGGUAGAUUACGGGUAGAGUGACCGCAGCU (ssRNA, 2'-F G, 2'-OMe A/C/U, 5' C6NH2, 3' idT) [Aptamer 209], the binding result in data set [1] is on record as “binds”.

For the molecule UGAUGACGGUAGAUUACGGGGAGUGUGACCGCAUCU (ssRNA, 2'-F G, 2'-OMe A/C/U, 5' C6NH2, 3' idT) [Aptamer 97], in data set [2], the binding result is on record as “binds”.

As to UGAUGACGGUAGAUUAAGGGUAGUGUGACCGCAUCU (ssRNA, 2'-F G, 2'-OMe A/C/U, 5' C6NH2, 3' idT) [Aptamer 104], in data set [2], the binding result was “binds”.

Consider UGAUGACGAUAGAUUUCGGGUAGUGUGAUCGCAUCU (ssRNA, 2'-F G, 2'-OMe A/C/U, 5' C6NH2, 3' idT) [Aptamer 106], for which the binding result in data set [2] was “binds”.

As for GAUGACGGUAGAUUACGGGUAGAGUGACCGCAUC (ssRNA, 2'-F G, 2'-OMe A/C/U, 5' C6NH2, 3' idT) [Aptamer 38], in data set [1] (stem-loop), the binding result is “binds”.

Turning to GGCGACGGUAGAUUACGGGUAGAGUGACCGCGCC (ssRNA, 2'-F G, 2'-OMe A/C/U, 5' C6NH2, 3' idT) [Aptamer 92], the binding result in data set [1] (stem-loop) is reported as “binds”.

With CUGUGGGAAAUGUGAGAUGGGUUGCAG (ssRNA, 2'-F G, 2'-OMe A/C/U, 5' C6NH2, 3' idT) [Aptamer 216], in data set [3], the binding result is “binds”.

Turning to CGGUGGGAAAUGUGAGAUGGGUUGCCG (ssRNA, 2'-F G, 2'-OMe A/C/U, 5' C6NH2, 3' idT) [Aptamer 32], in data set [3] (stem-loop), the binding result is reported as “binds”.

In data set [3], CGGUGGGAAAUGUGAGAUGGGAUGCCG (ssRNA, 2'-F G, 2'-OMe A/C/U, 5' C6NH2, 3' idT) [Aptamer 215] returned a binding signal greater than 10 fold worse than Aptamer 8.

Take CGGUGGGACACGCGAGAUGGGUGGCCG (ssRNA, 2'-F G, 2'-OMe A/C/U, 5' C6NH2, 3' idT) [Aptamer 118]: the binding signal in data set [3] was greater than 10 fold worse than Aptamer 8.

In the case of CGAUGGGAAAUGUGAGAUGGGUUGUCG (ssRNA, 2'-F G, 2'-OMe A/C/U, 5' C6NH2, 3' idT) [Aptamer 218], the binding result in data set [3] is on record as “binds”.

In data set [3], CGGUGGGAAACCUGAGAUGGGUUGCCG (ssRNA, 2'-F G, 2'-OMe A/C/U, 5' C6NH2, 3' idT) [Aptamer 119] had a binding signal greater than 10 fold worse than Aptamer 8.

Consider UGCCGACGGUAGAUUACGGGUAGAGUGACCGCGGCU (ssRNA, 2'-F G, 2'-OMe A/C/U, 5' C6NH2, 3' idT) [Aptamer 208], for which the binding result in data set [1] is listed as “binds”.

Take UGGCGACGGUAGAUUACGGGUAGAGUGACCGCGCCU (ssRNA, 2'-F G, 2'-OMe A/C/U, 5' C6NH2, 3' idT) [Aptamer 210]: in data set [1], the binding result was “binds”.

In turn, CGGUGGGAAAUCUGAGAUGGGUUGCCG (ssRNA, 2'-F G, 2'-OMe A/C/U, 5' C6NH2, 3' idT) [Aptamer 112] displayed a binding signal in data set [3] greater than 10 fold worse than Aptamer 8.

CGGUGGGAAAUUUGAGAUGGGUUGCCG (ssRNA, 2'-F G, 2'-OMe A/C/U, 5' C6NH2, 3' idT) [Aptamer 114] displayed a binding signal in data set [3] greater than 10 fold worse than Aptamer 8.

Regarding UGAUGACGGUAGAUUAUGGGAAGUGUGACCGCAUCU (ssRNA, 2'-F G, 2'-OMe A/C/U, 5' C6NH2, 3' idT) [Aptamer 100], the binding signal in data set [2] is > 10 fold better than Aptamer 3.

For UGAUGACGGUAGAUUUCGGGAAGUGUGACCGCAUCU (ssRNA, 2'-F G, 2'-OMe A/C/U, 5' C6NH2, 3' idT) [Aptamer 110], the binding result in data set [2] is on record as “binds”.

Take CGGUGGGAAAUAUGAGAUGGGUUGCCG (ssRNA, 2'-F G, 2'-OMe A/C/U, 5' C6NH2, 3' idT) [Aptamer 113]: the binding signal in data set [3] is greater than 10 fold worse than Aptamer 8.

Molecule CGGUGGGAACCGUGAGAUGGGGUGCCG (ssRNA, 2'-F G, 2'-OMe A/C/U, 5' C6NH2, 3' idT) [Aptamer 155] gave a binding signal in data set [3] greater than 10 fold worse than Aptamer 8.

Turning to CGGUGGGACACCCGAGAUGGGUGGCCG (ssRNA, 2'-F G, 2'-OMe A/C/U, 5' C6NH2, 3' idT) [Aptamer 121], in data set [3], the binding signal was greater than 10 fold worse than Aptamer 8.

For CGGUGGGAACUGUGAGAUGGGGUGCCG (ssRNA, 2'-F G, 2'-OMe A/C/U, 5' C6NH2, 3' idT) [Aptamer 154], the binding signal in data set [3] was greater than 10 fold worse than Aptamer 8.

For the molecule CGCUGGGAAAUGUGAGAUGGGUUGGCG (ssRNA, 2'-F G, 2'-OMe A/C/U, 5' C6NH2, 3' idT) [Aptamer 217], the binding result in data set [3] is listed as “binds”.

Take CGGUGGGAAACCCGAGAUGGGUUGCCG (ssRNA, 2'-F G, 2'-OMe A/C/U, 5' C6NH2, 3' idT) [Aptamer 120]: the binding signal in data set [3] was greater than 10 fold worse than Aptamer 8.

In turn, CGGUGGGAAAUGCGAGAUGGGUUGCCG (ssRNA, 2'-F G, 2'-OMe A/C/U, 5' C6NH2, 3' idT) [Aptamer 115] came in with a binding signal in data set [3] greater than 10 fold worse than Aptamer 8.

The molecule CGGUGGGAAACGCGAGAUGGGUUGCCG (ssRNA, 2'-F G, 2'-OMe A/C/U, 5' C6NH2, 3' idT) [Aptamer 117] came in with a binding signal in data set [3] greater than 10 fold worse than Aptamer 8.
